The record followed here is the supplement of paper PMC10724198.

± gives the standard deviation of the averaged measurements.

This data set has as its system Saccharomyces cerevisiae. Put plainly: protein stability index of tFT-peptide fusion (C-terminal peptide) (PSI (0-1 scale)); higher = more stable (slower turnover). Conditions: temperature: 30 C. The method, then:
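MPS profiling in S. cerevisiae of the yeast C-terminome library: the last 12 aa of each annotated ORF are fused to the C-terminus of a sfGFP-mCherry timer, after a GGGS linker. Cells are FACS-sorted into 8 mCherry/sfGFP bins and deep-sequenced. PSI runs from 0 (unstable) to 1 (stable); wild type and das1Δ backgrounds, two technical replicates each.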

Setting [1] is: genetic background: das1 deletion.

Consider FGWFDMNMEQGF [SEF1 C-terminal 12 aa], for which the protein stability index by setting is: under setting [1], 0.7562 ± 0.0074; (genetic background: wild type) 0.757 ± 0.023.
Take “FHSMAHLSLHQY [YOR394C-A C-terminal 12 aa]”: the protein stability index stood at 0.7202 ± 0.00097 under setting [1] and 0.478 ± 0.091 (genetic background: wild type).
As to FIREFVLKNYSK [SNO2 C-terminal 12 aa], the protein stability index runs as follows: under setting [1], 0.669 ± 0.0099; (genetic background: wild type) 0.71 ± 0.068.
On to FIYKRNKKFILN [YPQ1 C-terminal 12 aa], for which the protein stability index was 0.725 ± 0.014 under setting [1] and 0.21 ± 0.019 (genetic background: wild type).
For the sequence “FKCVHTPCNVYI [YER078W-A C-terminal 12 aa]”, the protein stability index reads like this: under setting [1], 0.679 ± 0.0076; (genetic background: wild type) 0.665 ± 0.037.
Consider FKVDDNVDFPSA [RPN2 C-terminal 12 aa], for which the protein stability index reads like this: under setting [1], 0.681 ± 0.016; (genetic background: wild type) 0.744 ± 0.089.
For FLLVLFFICIIL [YOL014W C-terminal 12 aa] the same measures were 0.366 ± 0.013 and 0.3063 ± 0.0029.
As for FMGGFLSKGNKR [ROG3 C-terminal 12 aa], the protein stability index was 0.706 ± 0.012 under setting [1] and 0.683 ± 0.029 (genetic background: wild type).
As for FMGLGCVISEEL [TFB3 C-terminal 12 aa], the protein stability index under setting [1] amounted to 0.693 ± 0.01 and the protein stability index (genetic background: wild type) amounted to 0.685 ± 0.097.
As for FNISDYFSDIHE [ORC5 C-terminal 12 aa], the protein stability index is, setting by setting: under setting [1], 0.744 ± 0.02; (genetic background: wild type) 0.7 ± 0.023.
With FPFELRREQTEG [PET130 C-terminal 12 aa], the protein stability index is, setting by setting: under setting [1], 0.6976 ± 0.0057; (genetic background: wild type) 0.755 ± 0.061.
Consider “FPKLALVCTIFS [YGR146C-A C-terminal 12 aa]”, for which the protein stability index is, setting by setting: under setting [1], 0.369 ± 0.019; (genetic background: wild type) 0.403 ± 0.009.
Regarding FQERIKNKNILK [CWC27 C-terminal 12 aa], the protein stability index under setting [1] was found to be 0.739 ± 0.008 and the protein stability index (genetic background: wild type) is 0.729 ± 0.0083.
The matching figures for FRCKFKERKVDG [REP1 C-terminal 12 aa]: 0.682 ± 0.0088 and 0.674 ± 0.015.
On to FRSSAGLRSSKV [MIC10 C-terminal 12 aa], for which the protein stability index runs as follows: under setting [1], 0.742 ± 0.016; (genetic background: wild type) 0.706 ± 0.011.
In the case of FSGDMSFTVYQL [POA1 C-terminal 12 aa], the protein stability index is, setting by setting: under setting [1], 0.741 ± 0.01; (genetic background: wild type) 0.699 ± 0.041.
The matching figures for FSIVALEVWRVG [OXR1 C-terminal 12 aa]: 0.552 ± 0.013 and 0.567 ± 0.022.
For the sequence FSSEQGNPKEEK [FMP10 C-terminal 12 aa], the protein stability index came out at 0.702 ± 0.034 under setting [1] and 0.733 ± 0.03 (genetic background: wild type).
For the sequence FTIYEKVLVMLA [CTP1 C-terminal 12 aa], the protein stability index turned out to be 0.286 ± 0.017 under setting [1] and 0.20202 ± 3.5e-06 (genetic background: wild type).
As for FTRRGWSSFFKQ [PCL9 C-terminal 12 aa], the protein stability index under setting [1] is 0.684 ± 0.0086 and the protein stability index (genetic background: wild type) turned out to be 0.6647 ± 0.0024.
The matching figures for FVDGIANSKKST [SRB7 C-terminal 12 aa]: 0.699 ± 0.01 and 0.682 ± 0.023.
The matching figures for FVFVNEFDVYTY [GPI12 C-terminal 12 aa]: 0.716 ± 0.018 and 0.704 ± 0.033.
For FWEKRWKDGWDE [ERV1 C-terminal 12 aa] the same measures were 0.756 ± 0.053 and 0.681 ± 0.031.
Regarding FYLHGNGSDNLF [YGR153W C-terminal 12 aa], the protein stability index was 0.7164 ± 0.0016 under setting [1] and 0.711 ± 0.031 (genetic background: wild type).
Sequence GAALMALLGKWA [ZRT2 C-terminal 12 aa] gave a protein stability index under setting [1] of 0.725 ± 0.021 and a protein stability index (genetic background: wild type) of 0.6381 ± 0.0041.
GARIGLQGYKSH [YNL184C C-terminal 12 aa] came in with a protein stability index under setting [1] of 0.70081 ± 0.00013 and a protein stability index (genetic background: wild type) of 0.688 ± 0.015.
The sequence GDKLISPLKKAF [TKL1 C-terminal 12 aa] had a protein stability index under setting [1] of 0.675 ± 0.013 and a protein stability index (genetic background: wild type) of 0.711 ± 0.044.
The matching figures for GDYSFNGRVTDF [SDH8 C-terminal 12 aa]: 0.711 ± 0.015 and 0.697 ± 0.011.
The matching figures for GEKKQKGQALQF [RPL42A C-terminal 12 aa]: 0.68 ± 0.025 and 0.662 ± 0.051.
For GETSSSSAVAEV [AQY1 C-terminal 12 aa] the same measures were 0.6874 ± 0.0045 and 0.659 ± 0.03.
Take GHNWLIFTRRRL [CBT1 C-terminal 12 aa]: the protein stability index runs as follows: under setting [1], 0.718 ± 0.012; (genetic background: wild type) 0.707 ± 0.0083.
The sequence GIMVSPMKTNQR [SWI5 C-terminal 12 aa] showed a protein stability index under setting [1] of 0.708 ± 0.025 and a protein stability index (genetic background: wild type) of 0.6993 ± 0.0062.
With GIVNFWSLEKAA [CIA1 C-terminal 12 aa], the protein stability index is 0.716 ± 0.012 under setting [1] and 0.633 ± 0.011 (genetic background: wild type).
On to GIYSAVIDQTGF [RRP9 C-terminal 12 aa], for which the protein stability index runs as follows: under setting [1], 0.705 ± 0.011; (genetic background: wild type) 0.6868 ± 0.003.
The matching figures for GKFKSAVFEHAG [SRV2 C-terminal 12 aa]: 0.703 ± 0.026 and 0.71 ± 0.019.
On to GKKGQHVGCCVC [YFL066C C-terminal 12 aa], for which the protein stability index stood at 0.722 ± 0.0084 under setting [1] and 0.691 ± 0.046 (genetic background: wild type).
For the sequence “GKLLVPLVLYQI [YDR182W-A C-terminal 12 aa]”, the protein stability index runs as follows: under setting [1], 0.673 ± 0.019; (genetic background: wild type) 0.535 ± 0.0071.
Take GKLPSSLLSYFV [ZUO1 C-terminal 12 aa]: the protein stability index is, setting by setting: under setting [1], 0.7219 ± 0.0065; (genetic background: wild type) 0.673 ± 0.032.
Turning to GKRNYLLSVTFV [YCR006C C-terminal 12 aa], the protein stability index runs as follows: under setting [1], 0.653 ± 0.012; (genetic background: wild type) 0.6385 ± 0.0019.
For GKWYCDDCKKKL [PHO23 C-terminal 12 aa], the protein stability index under setting [1] was found to be 0.729 ± 0.026 and the protein stability index (genetic background: wild type) was found to be 0.717 ± 0.048.
The matching figures for GLSIDTRSAYFV [YPL251W C-terminal 12 aa]: 0.725 ± 0.019 and 0.68 ± 0.026.
The sequence GLSPIRYFIPQH [YNL114C C-terminal 12 aa] registered a protein stability index under setting [1] of 0.659 ± 0.017 and a protein stability index (genetic background: wild type) of 0.6812 ± 0.0052.
In the case of GNLRDTLIETYS [TIF6 C-terminal 12 aa], the protein stability index is, setting by setting: under setting [1], 0.6559 ± 0.0033; (genetic background: wild type) 0.679 ± 0.0088.
GNNGNNNNTTNL [PET123 C-terminal 12 aa] came in with a protein stability index under setting [1] of 0.672 ± 0.008 and a protein stability index (genetic background: wild type) of 0.669 ± 0.0096.
In the case of GNSVNPYNGRIN [SGF73 C-terminal 12 aa], the protein stability index under setting [1] amounted to 0.718 ± 0.019 and the protein stability index (genetic background: wild type) is 0.735 ± 0.0081.
Turning to GNTENGTLKKKH [BSC5 C-terminal 12 aa], the protein stability index is 0.685 ± 0.0072 under setting [1] and 0.667 ± 0.037 (genetic background: wild type).
In the case of “GPCCMYIGCGCG [YBR056C-B C-terminal 12 aa]”, the protein stability index came out at 0.6658 ± 0.0036 under setting [1] and 0.686 ± 0.032 (genetic background: wild type).
Turning to GPCVDALLSLSE [VPS9 C-terminal 12 aa], the protein stability index reads like this: under setting [1], 0.74 ± 0.0083; (genetic background: wild type) 0.716 ± 0.048.
The matching figures for GPEKAAELAFLA [YML079W C-terminal 12 aa]: 0.685 ± 0.024 and 0.6497 ± 0.0026.
Consider GQVIDPLKAPFK [UTP14 C-terminal 12 aa], for which the protein stability index reads like this: under setting [1], 0.6757 ± 0.0012; (genetic background: wild type) 0.691 ± 0.043.
Consider GRPEQAPECKQS [NAP1 C-terminal 12 aa], for which the protein stability index is, setting by setting: under setting [1], 0.688 ± 0.0078; (genetic background: wild type) 0.648 ± 0.011.
Regarding GSEHSDPFSTFY [DBF20 C-terminal 12 aa], the protein stability index is, setting by setting: under setting [1], 0.748 ± 0.0093; (genetic background: wild type) 0.7245 ± 0.0011.
In the case of GVAKSMGIKVVP [MRPL19 C-terminal 12 aa], the protein stability index worked out at 0.652 ± 0.0064 under setting [1] and 0.686 ± 0.044 (genetic background: wild type).
As for GVALAGALAFLI [HOR7 C-terminal 12 aa], the protein stability index was determined as 0.68751 ± 0.00021 under setting [1] and 0.66173 ± 0.00053 (genetic background: wild type).
Take GVEKYWGILSSD [SCW10 C-terminal 12 aa]: the protein stability index reads like this: under setting [1], 0.7123 ± 0.0033; (genetic background: wild type) 0.716 ± 0.028.
Sequence GYLIWSMGNRRR [YFL051C C-terminal 12 aa] returned a protein stability index under setting [1] of 0.731 ± 0.018 and a protein stability index (genetic background: wild type) of 0.71 ± 0.016.
Regarding HAAEQILKHFAA [THI4 C-terminal 12 aa], the protein stability index worked out at 0.697 ± 0.013 under setting [1] and 0.708 ± 0.015 (genetic background: wild type).
The matching figures for HATTVIDGKIKV [YHI9 C-terminal 12 aa]: 0.693 ± 0.0079 and 0.688 ± 0.039.
Consider HDDKPWYKAMLE [GAL2 C-terminal 12 aa], for which the protein stability index amounted to 0.7493 ± 0.0048 under setting [1] and 0.733 ± 0.053 (genetic background: wild type).
Regarding HFANFKRTIEEK [AMD1 C-terminal 12 aa], the protein stability index turned out to be 0.729 ± 0.049 under setting [1] and 0.6925 ± 0.0065 (genetic background: wild type).
Regarding “HFCYIGRITTHT [YDL114W-A C-terminal 12 aa]”, the protein stability index is, setting by setting: under setting [1], 0.681 ± 0.017; (genetic background: wild type) 0.689 ± 0.018.
As to “HFLQKFFKLFDN [YMR052C-A C-terminal 12 aa]”, the protein stability index by setting is: under setting [1], 0.734 ± 0.0093; (genetic background: wild type) 0.687 ± 0.015.
Take HGGTISLCRFGG [SWT21 C-terminal 12 aa]: the protein stability index by setting is: under setting [1], 0.686 ± 0.023; (genetic background: wild type) 0.658 ± 0.015.
The matching figures for HGNVFHIESICG [YLL047W C-terminal 12 aa]: 0.655 ± 0.053 and 0.737 ± 0.031.
For the sequence HGRESANGISKQ [YLR374C C-terminal 12 aa], the protein stability index is, setting by setting: under setting [1], 0.679 ± 0.015; (genetic background: wild type) 0.65531 ± 0.00026.
For HGTAKALAAAKK [RPL29 C-terminal 12 aa] the same measures were 0.7098 ± 0.0054 and 0.6697 ± 0.0058.
Regarding HIRKERTLYIYI [PIH1 C-terminal 12 aa], the protein stability index was 0.60684 ± 0.00034 under setting [1] and 0.351 ± 0.0044 (genetic background: wild type).
